10 molecules from US20220177596A1 (Bristol-Myers Squibb, published 2022) can be followed below.

Substitutions are numbered along the chain they refer to. Values joined by “and” are separate entries in the source; they are usually repeats but may differ in a detail not shown here. Equal values may be shown once.

The target of experiment [1] is human CD40 on primary human cells (tonsillar B cells, immature dendritic cells) (human, UniProt P25942 21-277). The experiment is described as follows: cell-based or functional assay.
Chain of human CD40 on primary human cells (tonsillar B cells, immature dendritic cells) (P25942 21-277 limits assumed): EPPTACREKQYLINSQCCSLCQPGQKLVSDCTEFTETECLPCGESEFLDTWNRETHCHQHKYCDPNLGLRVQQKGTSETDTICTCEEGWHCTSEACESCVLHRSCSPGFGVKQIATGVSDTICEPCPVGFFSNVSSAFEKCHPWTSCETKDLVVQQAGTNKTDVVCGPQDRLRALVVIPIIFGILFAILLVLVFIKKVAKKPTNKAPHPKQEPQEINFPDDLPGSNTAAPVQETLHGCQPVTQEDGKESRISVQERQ
Experiment [2] deals with T1, human-CD40 monomer (human, UniProt P25942 21-193, limits assumed).
T1 construct: also called hCD40-monomer; human-CD40-monomer protein
T1 sequence (P25942 21-193 limits assumed): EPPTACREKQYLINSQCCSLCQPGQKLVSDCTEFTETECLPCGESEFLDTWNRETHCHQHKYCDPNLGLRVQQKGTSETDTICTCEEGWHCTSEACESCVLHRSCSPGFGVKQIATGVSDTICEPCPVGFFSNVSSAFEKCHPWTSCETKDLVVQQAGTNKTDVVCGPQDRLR
The experiment is described as follows: SPR full kinetics, Ab on protein A. As to the method: The VH sequences were formatted in the context of an IgG1.3f isotype. The Vκ sequences were formatted as a full light chain with a common CL sequence. All 55 combinations of these humanized HC and LC constructs, as well as the chimeric Y1238 molecule were expressed as 3 ml supernatants for binding analysis by SPR. […] All antibodies, except for those containing hz-HC3, captured at high levels (>300 RU) using a 100-fold dilution of the expression supernatant, indicating a high antibody titer in the supernatant except for the hz-HC3 samples. The kinetic data for the two concentrations of hCD40-monomer were fit to a 1:1 Langmuir model, to yield estimates of the kinetic and affinity values for these interactions, and for comparison of the different molecules. […] Also, for a given heavy chain, the antibodies with light chains hz-LC1 or hz-LC2 had higher CD40 affinity than those with hz-LC3, hz-LC4 or hz-LC5.

For experiment [3], the target named is T1, human-CD40 monomer. The experiment is described as follows: SPR 2 pt screen, Ab on protein A. As for the experimental part: The VH sequences were formatted in the context of an IgG1.3f isotype. The Vκ sequences were formatted as a full light chain with a common CL sequence. All 55 combinations of these humanized HC and LC constructs, as well as the chimeric Y1238 molecule were expressed as 3 ml supernatants for binding analysis by SPR. Each of the 56 supernatants, as well as a purified Y1238-chimeric IgG1 antibody, was captured on a protein A sensor chip and tested for binding to two concentrations (i.e., 200 nM and 1000 nM) of hCD40-monomer using BIAcore™ SPR in a screening assay. All antibodies, except for those containing hz-HC3, captured at high levels (>300 RU) using a 100-fold dilution of the expression supernatant, indicating a high antibody titer in the supernatant except for the hz-HC3 samples. The kinetic data for the two concentrations of hCD40-monomer were fit to a 1:1 Langmuir model, to yield estimates of the kinetic and affinity values for these interactions, and for comparison of the different molecules. […] Also, for a given heavy chain, the antibodies with light chains hz-LC1 or hz-LC2 had higher CD40 affinity than those with hz-LC3, hz-LC4 or hz-LC5.

The target of experiment [4] is T1, human-CD40 monomer. The experiment is described as follows: SPR, Ab captured on protein A, CD40 monomer analyte. From the text: Based on the supernatant screening SPR data and bias towards constructs with fewer framework back-mutations, a subset of humanized Y1238 antibodies were selected for expression, purification, and further characterization. Two of these antibodies (i.e., Y1238-hz1 and Y1238-hz2) were formatted with P238K and N297A isotypes (i.e., SEQ ID NOS: 39, 40, 42, and 43 for heavy chains; see TABLE 15 for light chains) and tested for CD40 and FcgR binding by SPR. […] The Fc domain is underlined.

Experiment [5] concerns the target T1, human-CD40 monomer. The experiment is described as above. As for the experimental part:
These chimeric antibodies were tested for CD40 and FcgR binding by SPR, as well as for iDC activation.
This is another data set of the same source.

The target in experiment [6] is T1, human-CD40 monomer. Described as above. The source holds these as a separate data set.

B1: Y1238 (antibody, V domains shown)
VH: QVQLQQSGAELVRPGTSVKVSCKASGYAFTNYLIEWVKQRPGQGLEWIGVINPGSGGTNYNEKFKGKATLTADKSSSTAYMQLSSLTSDDSAVYFCARSQLGRRFDYWGQGTTLTVSS
VL: DIVMTQSHKFMSTSVGDRVSITCKASQDVRTGVAWYQQKPGQSPKLLIYSASYRNTGVPDRFTGSRSGTDFTFTISSVQAEDLAVYYCQQHYSPPYTFGGGTKLEIK
As for B1, in experiment [1], the “IC50 for inhibition of proliferation of B cells, CD40L Trimer” value (“IC50 for inhibition … CD40L Trimer” for short) is 3.4 ng/mL and the “IC50 for inhibition of proliferation of B cells, CHO CD40L” value (“IC50 for inhibition … CHO CD40L” for short) came out at 19.9 ng/mL.

B2: purified Y1238-chimeric IgG1 antibody (antibody)
VH: B1 VH
light: DIVMTQSHKFMSTSVGDRVSITCKASQDVRTGVAWYQQKPGQSPKLLIYSASYRNTGVPDRFTGSRSGTDFTFTISSVQAEDLAVYYCQQHYSPPYTFGGGTKLEIKRTVAAPSVFIFPPSDEQLKSGTASVVCLLNNFYPREAKVQWKVDNALQSGNSQESVTEQDSKDSTYSLSSTLTLSKADYEKHKVYACEVTHQGLSSPVTKSFNRGEC
notes: Called IgG1; also called Y1238-IgG1; chimeric, purified
Turning to B2, in the experiment with human-CD40 monomer [2], the dissociation constant Kd was 3.2 nM, the koff stood at 0.00027 s⁻¹ and the kon worked out at 83000 M⁻¹ s⁻¹. In the experiment with human-CD40 monomer [3], the Kd was 6.7 nM and 6.9 nM and 8.6 nM; the off-rate constant (koff) was 0.00038 s⁻¹ and 0.0004 s⁻¹ and 0.0005 s⁻¹; the association rate constant (kon) was 56000 M⁻¹ s⁻¹ and 59000 M⁻¹ s⁻¹ and 58000 M⁻¹ s⁻¹.

B3: chimeric Y1238 supernatant (Sup 56; HC-Chim / LC-Chim) (antibody)
VH: B1 VH
light: B2 light
notes: Tested as expression supernatant
Take B3: in the experiment with human-CD40 monomer [2], the Kd came to 2.6 nM, the koff amounted to 0.00022 s⁻¹ and the kon came out at 86000 M⁻¹ s⁻¹. Moreover, in the experiment with human-CD40 monomer [3], the Kd turned out to be 5.6 nM, the koff worked out at 0.00032 s⁻¹ and the on-rate (kon) turned out to be 57000 M⁻¹ s⁻¹.

B4: humanized Y1238 hz1 (hz-HC1 / hz-LC1), IgG1.3f (antibody, V domains shown)
VH: QVQLVQSGAEVKKPGASVKVSCKASGYAFTNYLIEWVRQAPGQGLEWMGVINPGSGGTNYNEKFKGRVTMTRDTSISTAYMELSRLRSDDTAVYYCARSQLGRRFDYWGQGTLVTVSS
VL: DIQMTQSPSSLSASVGDRVTITCKASQDVRTGVAWYQQKPGKAPKLLIYSASYRNTGVPSRFSGSGSGTDFTFTISSLQPEDIATYYCQQHYSPPYTFGGGTKVEIK
notes: IgG1.3f heavy constant, common CL; expression supernatant; also called Sup 1
In the case of B4, in the experiment with human-CD40 monomer [2], the Kd turned out to be 3 nM, the koff is 0.00019 s⁻¹ and the kon amounted to 65000 M⁻¹ s⁻¹. For the same molecule, in the experiment with human-CD40 monomer [3], the Kd is 4.2 nM, the koff amounted to 0.0002 s⁻¹ and the kon was found to be 48000 M⁻¹ s⁻¹.

B5: humanized Y1238 hz55 (hz-HC11 / hz-LC5), IgG1.3f (antibody, V domains shown)
VH: B4 VH with A40R, T74K, I76S, Y95F
VL: B4 VL with K42Q, G66R, T85V
notes: IgG1.3f heavy constant, common CL; expression supernatant; also called Sup 55
As for B5, in the experiment with human-CD40 monomer [3], the Kd came to 15 nM, the koff turned out to be 0.00056 s⁻¹ and the kon was 37000 M⁻¹ s⁻¹.

B6: BI-mAb-B (antibody, human IgG1, kappa, L234A L235A, V domains shown)
VH: EVQLVESGGGLVKPGGSLRLSCAASGFTFSDYGMHWVRQAPGKGLEWVAYISSGNRIIYYADTVKGRFTISRDNAKNSLYLQMNSLRAEDTAVYYCARQDGYRYAMDYWGQGTLVTVSS
VL: DIVMTQSPDSLAVSLGEKVTINCKSSQSLLNSGNQKNYLTWHQQKPGQPPKLLIYWTSTRESGVPDRFSGSGSGTDFTLTISSLQAEDVAVYYCQNDYTYPLTFGGGTKVEIKR
notes: Comparator anti-CD40 antibody; also called Antibody B (U.S. Pat. No. 9,090,696)
Regarding B6, in the experiment with human-CD40 monomer [4], the Kd worked out at 35 nM, the koff was 0.0021 s⁻¹ and the association rate constant (kon) turned out to be 61000 M⁻¹ s⁻¹. In experiment [1], the “IC50 for inhibition … CD40L Trimer” value is 7.4 ng/mL.

B7: Y1238-IgG1.3f (antibody)
heavy: QVQLQQSGAELVRPGTSVKVSCKASGYAFTNYLIEWVKQRPGQGLEWIGVINPGSGGTNYNEKFKGKATLTADKSSSTAYMQLSSLTSDDSAVYFCARSQLGRRFDYWGQGTTLTVSSASTKGPSVFPLAPSSKSTSGGTAALGCLVKDYFPEPVTVSWNSGALTSGVHTFPAVLQSSGLYSLSSVVTVPSSSLGTQTYICNVNHKPSNTKVDKRVEPKSCDKTHTCPPCPAPEAEGAPSVFLFPPKPKDTLMISRTPEVTCVVVDVSHEDPEVKFNWYVDGVEVHNAKTKPREEQYNSTYRVVSVLTVLHQDWLNGKEYKCKVSNKALPAPIEKTISKAKGQPREPQVYTLPPSREEMTKNQVSLTCLVKGFYPSDIAVEWESNGQPENNYKTTPPVLDSDGSFFLYSKLTVDKSRWQQGNVFSCSVMHEALHNHYTQKSLSLSPGK
light: B2 light
notes: Chimeric mouse/human anti-human CD40; also called Y1238-hIgG1.3f; chimeric Y1238 IgG1.3f
In the experiment with human-CD40 monomer [5], B7 displayed an equilibrium dissociation constant (Kd) of 2.1 nM, a koff of 0.00021 s⁻¹ and a kon of 100000 M⁻¹ s⁻¹.

B8: 5F11-45-IgG1.3f (antibody)
heavy: QVQLVQSGAEVKKPGSSVKVSCKASGYTFTDLSMHWVRQAPGQGLEWMGYITPSSGYTAYNQKFKGKTTLTADKSTSTAYMELSSLRSEDTAVYYCARLILQRGAYWGQGTLVTVSSASTKGPSVFPLAPSSKSTSGGTAALGCLVKDYFPEPVTVSWNSGALTSGVHTFPAVLQSSGLYSLSSVVTVPSSSLGTQTYICNVNHKPSNTKVDKRVEPKSCDKTHTCPPCPAPEAEGAPSVFLFPPKPKDTLMISRTPEVTCVVVDVSHEDPEVKFNWYVDGVEVHNAKTKPREEQYNSTYRVVSVLTVLHQDWLNGKEYKCKVSNKALPAPIEKTISKAKGQPREPQVYTLPPSREEMTKNQVSLTCLVKGFYPSDIAVEWESNGQPENNYKTTPPVLDSDGSFFLYSKLTVDKSRWQQGNVFSCSVMHEALHNHYTQKSLSLSPGK
light: DIVLTQSPDSLAVSLGERATINCRASKNVDSYGNSFMHWYQQKPGQPPKLLIYRASNLESGVPDRFSGSGSGTDFTLTISSLQAEDVAVYYCQQSNEDPLTFGQGTKLEIKRTVAAPSVFIFPPSDEQLKSGTASVVCLLNNFYPREAKVQWKVDNALQSGNSQESVTEQDSKDSTYSLSSTLTLSKADYEKHKVYACEVTHQGLSSPVTKSFNRGEC
For B8, in the experiment with human-CD40 monomer [6], binding was put at a Kd of 1.6 nM, the off-rate constant (koff) was 0.00013 s⁻¹ and the kon turned out to be 82000 M⁻¹ s⁻¹.

B9: Y1238-hz2-N297A (antibody, human IgG1, kappa, N297A)
heavy: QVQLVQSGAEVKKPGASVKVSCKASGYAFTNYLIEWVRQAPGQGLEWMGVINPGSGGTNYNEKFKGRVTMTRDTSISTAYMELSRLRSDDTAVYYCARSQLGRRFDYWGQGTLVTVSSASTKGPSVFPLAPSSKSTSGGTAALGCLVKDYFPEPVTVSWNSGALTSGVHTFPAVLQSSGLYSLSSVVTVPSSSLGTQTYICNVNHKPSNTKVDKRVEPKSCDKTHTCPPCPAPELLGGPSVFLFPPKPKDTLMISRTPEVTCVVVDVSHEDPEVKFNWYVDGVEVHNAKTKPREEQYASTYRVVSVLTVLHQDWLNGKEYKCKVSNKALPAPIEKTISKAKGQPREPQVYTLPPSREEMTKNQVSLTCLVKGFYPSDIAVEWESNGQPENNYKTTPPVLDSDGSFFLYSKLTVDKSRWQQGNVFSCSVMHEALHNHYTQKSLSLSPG
light: DIQMTQSPSSLSASVGDRVTITCKASQDVRTGVAWYQQKPGKAPKLLIYSASYRNTGVPSRFSGSRSGTDFTFTISSLQPEDIATYYCQQHYSPPYTFGGGTKVEIKRTVAAPSVFIFPPSDEQLKSGTASVVCLLNNFYPREAKVQWKVDNALQSGNSQESVTEQDSKDSTYSLSSTLTLSKADYEKHKVYACEVTHQGLSSPVTKSFNRGEC
notes: Humanized Y1238
In the experiment with human-CD40 monomer [4], B9 displayed a Kd of 6 nM, a koff of 0.0004 s⁻¹ and a kon of 66000 M⁻¹ s⁻¹. Also, in experiment [1], the “IC50 for inhibition … CD40L Trimer” value was 2.9 ng/mL and the “IC50 for inhibition … CHO CD40L” value was found to be 20 ng/mL.

B10: Y1238-hz2-P238K (antibody, human IgG1, kappa)
heavy: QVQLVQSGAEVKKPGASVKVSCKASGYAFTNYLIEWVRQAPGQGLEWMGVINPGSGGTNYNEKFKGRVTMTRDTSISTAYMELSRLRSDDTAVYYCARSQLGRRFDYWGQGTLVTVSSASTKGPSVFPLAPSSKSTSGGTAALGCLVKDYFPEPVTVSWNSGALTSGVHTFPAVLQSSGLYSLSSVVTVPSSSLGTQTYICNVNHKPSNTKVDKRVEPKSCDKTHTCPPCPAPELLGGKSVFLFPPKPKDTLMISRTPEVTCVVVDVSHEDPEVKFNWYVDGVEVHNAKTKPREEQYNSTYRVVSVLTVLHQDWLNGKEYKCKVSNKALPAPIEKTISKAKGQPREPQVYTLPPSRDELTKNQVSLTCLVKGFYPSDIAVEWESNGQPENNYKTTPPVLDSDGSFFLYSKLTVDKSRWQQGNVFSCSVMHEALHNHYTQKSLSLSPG
light: B9 light
notes: Humanized Y1238
As to B10, in the experiment with human-CD40 monomer [4], the equilibrium dissociation constant (Kd) was found to be 6.2 nM, the off-rate (koff) was found to be 0.00043 s⁻¹ and the kon was found to be 70000 M⁻¹ s⁻¹. Also, in experiment [1], the “IC50 for inhibition … CD40L Trimer” value was determined as 2.7 ng/mL and the “IC50 for inhibition … CHO CD40L” value stood at 21 ng/mL.
